Source: the supplement of paper PMC12855868

B1: library; numbered along this chain (parent)
chain: MAAAGGARLLRAASAVLGGPAGRWLHHAGSRAGSSGLLRNRGPGGSAEASRSLSVSARARSSSEDKITVHFINRDGETLTTKGKVGDSLLDVVVENNLDIDGFGACEGTLACSTCHLIFEDHIYEKLDAITDEENDMLDLAYGLTDRSRLGCQICLTKSMDNMTVRVPETVADARQSIDVGKTS

Variants of: B1
Test: scaled log2 fold change in cell abundance, elesclomol vs control (0 = silent mean, 1 = nonsense mean) (scaled log2 ratio); higher = higher viability under elesclomol (loss of FDX1 cuproptosis function)
Conditions: glucose 10 mM
[1] = with ABC1 FDX1 KO, elesclomol 5 nM, 14 days
[2] = with HEK293T FDX1 KO, elesclomol 40 nM, 11 days
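Note: variant abundance is its share of total variant reads in each endpoint sample, from next-generation sequencing of the integrated ORF PCR-amplified out of genomic DNA.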

Variant | scaled log2 fold change [1] | scaled log2 fold change [2]
MAAAGGARLLRAASAVLGGPAGRWLHHAGSRAGSSGLLRNRGPGGSAEASRSLSVSARARSSSEDKITVHFINRDGETLTTKGKVGDSLLDVVVENNLDIDGFGANEGTLACSTCHLIFEDHIYEKLDAITDEENDMLDLAYGLTDRSRLGCQICLTKSMDNMTVRVPETVADARQSIDVGKTS [C106N] | 1.18 | 0.906
MAAAGGARLLRAASAVLGGPAGRWLHHAGSRAGSSGLLRNRGPGGSAEASRSLSVSARARSSSEDKITVHFINRDGETLTTKGKVGDSLLDVVVENNLDIDGFGAMEGTLACSTCHLIFEDHIYEKLDAITDEENDMLDLAYGLTDRSRLGCQICLTKSMDNMTVRVPETVADARQSIDVGKTS [C106M] | 1.1 | 1.09
MAAAGGARLLRAASAVLGGPAGRWLHHAGSRAGSSGLLRNRGPGGSAEASRSLSVSARARSSSEDKITVHFINRDGETLTTKGKVGDSLLDVVVENNLDIDGFGASEGTLACSTCHLIFEDHIYEKLDAITDEENDMLDLAYGLTDRSRLGCQICLTKSMDNMTVRVPETVADARQSIDVGKTS [C106S] | 1.19 | 1.14
MAAAGGARLLRAASAVLGGPAGRWLHHAGSRAGSSGLLRNRGPGGSAEASRSLSVSARARSSSEDKITVHFINRDGETLTTKGKVGDSLLDVVVENNLDIDGFGAREGTLACSTCHLIFEDHIYEKLDAITDEENDMLDLAYGLTDRSRLGCQICLTKSMDNMTVRVPETVADARQSIDVGKTS [C106R] | 1.07 | 1.14
MAAAGGARLLRAASAVLGGPAGRWLHHAGSRAGSSGLLRNRGPGGSAEASRSLSVSARARSSSEDKITVHFINRDGETLTTKGKVGDSLLDVVVENNLDIDGFGAQEGTLACSTCHLIFEDHIYEKLDAITDEENDMLDLAYGLTDRSRLGCQICLTKSMDNMTVRVPETVADARQSIDVGKTS [C106Q] | 0.973 | 1.99
MAAAGGARLLRAASAVLGGPAGRWLHHAGSRAGSSGLLRNRGPGGSAEASRSLSVSARARSSSEDKITVHFINRDGETLTTKGKVGDSLLDVVVENNLDIDGFGAPEGTLACSTCHLIFEDHIYEKLDAITDEENDMLDLAYGLTDRSRLGCQICLTKSMDNMTVRVPETVADARQSIDVGKTS [C106P] | 1.07 | 0.899
MAAAGGARLLRAASAVLGGPAGRWLHHAGSRAGSSGLLRNRGPGGSAEASRSLSVSARARSSSEDKITVHFINRDGETLTTKGKVGDSLLDVVVENNLDIDGFGATEGTLACSTCHLIFEDHIYEKLDAITDEENDMLDLAYGLTDRSRLGCQICLTKSMDNMTVRVPETVADARQSIDVGKTS [C106T] | 1.19 | 1.27
MAAAGGARLLRAASAVLGGPAGRWLHHAGSRAGSSGLLRNRGPGGSAEASRSLSVSARARSSSEDKITVHFINRDGETLTTKGKVGDSLLDVVVENNLDIDGFGALEGTLACSTCHLIFEDHIYEKLDAITDEENDMLDLAYGLTDRSRLGCQICLTKSMDNMTVRVPETVADARQSIDVGKTS [C106L] | 1.09 | 1.32
